Laboratory results from patent US20150010586A1.

The binders below were run against HLA-A*0201 (human) (assay: HLA-A*0201 peptide stabilization assay; unstable if >50% of complexes lost within 2 h). Details: remark: other sources report otherwise.

Binder | Stability [h]
RMPEAAPPV [p53 65-73 …] | 6
GLAPPQHLIRV [p53 187-197 …] | 6
FLHSGTAKSV [p53 113-122 …] | 6

These binders were tested against HLA-A*0101 (human) (assay: cellular competition assay vs FL-labelled reference peptide on B cells; affinity category (high/good IC50<5 uM, intermediate 5-15 uM, low >15-50 uM)). Details: remark: other sources report otherwise.

Binder | IC50 [µM]
RVEGNLRVEY [p53 196-205 …] | 5 to 15

Each binder was assayed against HLA-A*0301 (human) in the same assay as above. Details: remark: other sources report otherwise.

IC50 [µM] | Binder
5 to 15 | RAHSSHLKSK [p53 363-372 …]
5 to 15 | KGQSTSRHK [p53 373-381 …]

Second part, the binder before the results:

Binder | IC50 [µM]
GFLHSGTAK [p53 112-120 …] | 5 to 15
FLHSGTAK [p53 113-120 FLHSGTAK] | 5 to 15
VTCTYSPALNK [p53 122-132 …] | 5 to 15
GTRVRAMAIY [p53 154-163 …] | 5 to 15
VVRRCPHHER [p53 172-181 …] | 5 to 15

The binders below were run against HLA-A*1101 (human) in the same assay as above. Details: remark: other sources report otherwise.

Binder | IC50 [µM]
GFLHSGTAK [p53 112-120 …] | 5 to 15
RTEEENLRK [p53 283-291 …] | 5 to 15
RAHSSHLK [p53 363-370 RAHSSHLK] | 5 to 15
